Earlier results as cited in paper PMC8100458.

Columns and labels:
[1] = target: Asef (Homo sapiens) (UniProt Q9NR80); test: ITC
[2] = target: Asef peptide 187-192 (Homo sapiens); test: FP competition
[3] = target: Asef peptide 183-190 (Homo sapiens); test: FP competition
[4] = target: Asef peptide 179-193 (Homo sapiens); test: FP competition
[5] = target: Asef peptide 181-192 (Homo sapiens); test: FP competition

UniProt Q9NR80, sequence (Q9NR80 whole entry): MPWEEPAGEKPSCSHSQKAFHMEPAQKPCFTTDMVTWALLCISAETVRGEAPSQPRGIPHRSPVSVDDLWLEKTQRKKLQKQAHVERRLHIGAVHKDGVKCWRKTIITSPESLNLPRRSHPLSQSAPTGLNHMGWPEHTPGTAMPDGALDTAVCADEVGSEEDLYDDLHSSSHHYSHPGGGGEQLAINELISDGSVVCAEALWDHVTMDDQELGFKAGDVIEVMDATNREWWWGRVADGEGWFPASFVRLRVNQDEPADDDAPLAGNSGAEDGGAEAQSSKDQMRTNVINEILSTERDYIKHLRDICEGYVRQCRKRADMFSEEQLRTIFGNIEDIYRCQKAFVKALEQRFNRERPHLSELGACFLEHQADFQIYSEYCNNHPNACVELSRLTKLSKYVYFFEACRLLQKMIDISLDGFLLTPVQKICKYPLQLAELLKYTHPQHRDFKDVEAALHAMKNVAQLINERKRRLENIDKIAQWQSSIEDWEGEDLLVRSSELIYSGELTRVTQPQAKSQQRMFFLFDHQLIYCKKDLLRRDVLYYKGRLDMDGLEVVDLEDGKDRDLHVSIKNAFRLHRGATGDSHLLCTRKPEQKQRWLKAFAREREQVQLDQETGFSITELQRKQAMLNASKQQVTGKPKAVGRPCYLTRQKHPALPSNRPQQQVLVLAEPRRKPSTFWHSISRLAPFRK

## APC (from UniProt P25054)
[1]
  Kd: 0.0178 µM
[2]
  Ki: > 300 µM
[3]
  Ki: > 300 µM
[4]
  Ki: 17.1 µM
[5]
  Ki: 49.1 µM
